Reference: publication PMC4065035, “A Highly Functional Synthetic Phage Display Library Containing over 40 Billion Human Antibody Clones” (PLoS ONE, 2014)

Assays:
[1] = molecular target: T1, human recombinant BCD domains of tenascin-C (Homo sapiens, UniProt P24821); test: SPR; Biacore 3000; CM5 chip coated with murine or human recombinant BCD domains of tenascin-C; antibody (monomeric fraction of scFv, or SIP) injected at different concentrations, 10 µL/min; regeneration with 10 mM HCl; conditions: both partners purified
T1 construct: tenascin-C, human, alternatively spliced segment of the three fibronectin type-III homology domains B, C and D; AVI-Tag followed by the His-Tag at the C-terminus; Purification of the human construct is not clearly told; also called human BCD; human BCD domain; source: E. coli (pUC119 vector)

[2] = molecular target: T2, murine recombinant BCD domains of tenascin-C (Mus musculus, UniProt Q80YX1); test: as above; conditions: both partners purified
T2 construct: tenascin-C, mouse, alternatively spliced segment of the three fibronectin type-III homology domains B, C and D; A biotinylated version was used for the panning; the Biacore chip was a coated CM5 chip; also called murine BCD; murine BCD antigen; source: E. coli (pQE12 vector), purified over NiNTA resin

B1: scFv(G5), human antibody G5 in monomeric scFv format (scFv, V domains shown)
VH: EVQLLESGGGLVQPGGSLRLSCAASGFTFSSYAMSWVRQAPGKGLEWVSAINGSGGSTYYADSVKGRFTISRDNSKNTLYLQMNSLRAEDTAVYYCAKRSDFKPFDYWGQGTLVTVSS
VL: SSELTQDPAVSVALGQTVRITCQGDSLRSYYASWYQQKPGQAPVLVIYGKNNRPSGIPDRFSGSSSGNTASLTITGAQAEDEADYYCNSSGFPRTLVVFGGGTKLTVL
notes: VH of G5; library VH is on the DP47 germline with S52N (numbering of Tomlinson et al.) and a randomised CDR3 (residues 95-100); flexible polypeptide linker that connects VH and VL in the library's scFv format; VL of G5; Library scFv are detected by the anti-myc antibody 9E10; also called G5 antibody clone; anti-BCD antibody G5; source: E. coli (pHEN1 phagemid, IPTG induction), purified over …
What does the source list for B1?
Kd [1]: 27 nM; koff [1]: 0.003 s⁻¹; kon [1]: 110000 M⁻¹ s⁻¹; Kd [2]: 31 nM; koff [2]: 0.0025 s⁻¹; kon [2]: 79000 M⁻¹ s⁻¹
